# Results published in paper PMC7157757, “A Novel Combined Scientific and Artistic Approach for the Advanced Characterization of Interactomes: The Akirin/Subolesin Model” (Vaccines, 2020).
# Target: the molecule itself
# Test: SEC; HiPrep 16/60 Sephacryl S-100 HR; proteins incubated in PBS overnight at 4 °C before dilution in column buffer (50 mM sodium phosphate, 150 mM sodium chloride, pH 7.2); 0.8 mL/min; monomer and dimer
protein,measurement,value
"Recombinant I. scapularis AKR/SUB (natural protein, Akirin/Subolesin (AKR/SUB), Ixodes scapularis, Q4VRW2; also called Subolesin; tick SUB; source: Escherichia coli, Champion pET101 Directional TOPO Expression kit, as previously described [34,35]) not shown",stoichiometry N,2
